Results published in US20260234242A1 (HAINAN SIMCERE ZAIMING PHARMACEUTICAL, published 2026).
Like-named read-outs stand apart in the source and are kept apart here.

T1: human CDH6 on tumor cells (OVCAR3 cells, PA-1 cells) (human, UniProt P55285 54-790)
T1 sequence: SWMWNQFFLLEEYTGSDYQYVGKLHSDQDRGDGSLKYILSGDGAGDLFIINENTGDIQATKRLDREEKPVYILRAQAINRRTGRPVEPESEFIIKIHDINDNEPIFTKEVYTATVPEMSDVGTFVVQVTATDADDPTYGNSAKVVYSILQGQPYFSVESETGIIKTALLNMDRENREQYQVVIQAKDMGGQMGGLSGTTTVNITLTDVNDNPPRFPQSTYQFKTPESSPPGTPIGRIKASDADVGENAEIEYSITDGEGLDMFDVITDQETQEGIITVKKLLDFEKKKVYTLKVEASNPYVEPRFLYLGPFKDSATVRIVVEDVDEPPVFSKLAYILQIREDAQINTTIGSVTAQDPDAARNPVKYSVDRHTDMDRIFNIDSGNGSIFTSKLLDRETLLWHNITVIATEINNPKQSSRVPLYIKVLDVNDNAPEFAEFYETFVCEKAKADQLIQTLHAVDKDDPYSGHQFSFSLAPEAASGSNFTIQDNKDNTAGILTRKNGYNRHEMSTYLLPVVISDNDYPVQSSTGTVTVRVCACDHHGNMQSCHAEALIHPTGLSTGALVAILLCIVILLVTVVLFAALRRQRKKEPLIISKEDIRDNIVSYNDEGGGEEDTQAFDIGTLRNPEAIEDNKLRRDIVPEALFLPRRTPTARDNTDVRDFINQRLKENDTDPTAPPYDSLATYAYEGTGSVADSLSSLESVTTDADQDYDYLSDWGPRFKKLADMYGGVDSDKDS

T2: his-tagged human CDH6 extracellular region protein (hCDH6 ECD-his) (human, UniProt P55285 19-615)
T2 construct: also called Human CDH6-his; hCDH6-his; not shown: his tag
T2 sequence: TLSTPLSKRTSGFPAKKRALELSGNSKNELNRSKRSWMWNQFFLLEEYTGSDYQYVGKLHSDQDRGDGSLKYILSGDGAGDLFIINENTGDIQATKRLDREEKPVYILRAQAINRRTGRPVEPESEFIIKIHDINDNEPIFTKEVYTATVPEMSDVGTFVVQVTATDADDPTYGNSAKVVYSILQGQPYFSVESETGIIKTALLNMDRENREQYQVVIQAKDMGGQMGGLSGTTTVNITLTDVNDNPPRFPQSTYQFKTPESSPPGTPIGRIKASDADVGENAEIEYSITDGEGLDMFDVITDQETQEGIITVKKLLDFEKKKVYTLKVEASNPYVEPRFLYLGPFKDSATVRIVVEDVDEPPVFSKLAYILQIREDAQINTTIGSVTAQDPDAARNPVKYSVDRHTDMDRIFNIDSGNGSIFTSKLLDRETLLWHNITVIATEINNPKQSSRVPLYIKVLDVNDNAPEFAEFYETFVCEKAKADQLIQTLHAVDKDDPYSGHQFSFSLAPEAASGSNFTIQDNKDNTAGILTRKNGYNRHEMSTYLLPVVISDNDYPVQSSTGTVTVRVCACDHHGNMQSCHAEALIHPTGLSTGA


Key:
[1] = target: T1, human CDH6 on tumor cells (OVCAR3 …); experiment: FACS, PA-1 cells
Experimental: (§1) OVCAR3 cells with high expression of CDH6 and PA-1 cells with moderate expression of CDH6 were used to detect the binding activity of the antibodies to the cells. […] The cells were washed once with PBS, counted, resuspended to 2×10⁶ cells/mL in an FACS buffer (PBS+2% FBS), and then added to a 96-well plate at 50 μL/well. The chimeric antibodies were diluted with FACS buffer (PBS+2% FBS) and added to the 96-well plate at 50 μL/well, and the plate was incubated at 4° C. for 1 h. […] The dilution was added to the 96-well plate at 50 μL/well, and the plate was incubated at 4° C. for 1 h. After the plates were centrifuged and washed 2 times with PBS, the cells were resuspended in an FACS buffer. The mean fluorescence intensity (MFI) was measured using FACS Canton II (BD). Analysis was performed by the GraphPad Prism software, data were fitted, and EC50 values were calculated. The chimeric antibodies tested had strong binding to both OVCAR3 cells and PA-1 cells.
(§2) According to the above sequences, heavy chain (HC) and light chain (LC) plasmids were constructed (the nucleic acid sequences encoding the VH and VL of the antibodies were recombined into an expression vector carrying a signal peptide (SEQ ID NO: 132, […]) and a heavy chain constant region/light chain constant region sequence to obtain recombinant plasmids expressing VH-CH1-Fc/VL-CL). According to the expression and purification methods in Example 2, the hCDH6-14 humanized antibodies were obtained, and the binding activity of the humanized antibodies was detected by ELISA and FACS (see 2.2 and 2.3 for the method).

[2] = target: T2, his-tagged human CDH6 extracellular …; experiment: ELISA, coated antigen
Experimental: (§3) Human CDH6 protein (hCDH6 ECD-his, conventionally synthesized), monkey CDH6 protein (cynoCDH6 ECD-his, conventionally synthesized; the cynoCDH6 ECD sequence was derived from Uniprot #A0A2K5TW62 (19-615)), and murine CDH6 protein (mCDH6 ECD-his, conventionally synthesized; the mCDH6 ECD sequence was derived from Uniprot #P97326 (19-615)) were diluted with PBS to a final concentration of 1 μg/mL, and added to a 96-well ELISA plate at 100 μL/well. The plate was incubated at 4° C. overnight. The next day, the plate was washed 3 times with a plate washing solution (PBS+0.01% (v/v) Tween 20), and a blocking buffer (PBS+0.01% (v/v) Tween 20+2% (w/w) BSA) was added for blocking at room temperature for 2 h. The blocking buffer was discarded, and the plate was washed 3 times. The chimeric antibodies were diluted with 1% BSA+PBS (purchased from Cytiva, Cat. No. SH30264.01) and added to the 96-well plate at 50 μL/well. After incubation at 37° C. for 2 h, the plate was washed 3 times with a plate washing solution. […] The plate was incubated at 37° C. for 1 h and then washed 5 times with a plate washing solution. A TMB substrate (purchased from Seracare, Cat. No. 5120-0077) was added at 50 μL/well and incubated at room temperature for 10 min, then a stop solution (1.0 N HCl) was added at 50 μL/well. OD450 nm values were read using a microplate reader (Biotek). Analysis was performed by the GraphPad Prism software, data were fitted, and EC50 values were calculated. The chimeric antibodies tested all had strong binding to the human CDH6 protein, the monkey CDH6 protein, and the murine CDH6 protein.
(§4) According to the above sequences, heavy chain (HC) and light chain (LC) plasmids were constructed (the nucleic acid sequences encoding the VH and VL of the antibodies were recombined into an expression vector carrying a signal peptide (SEQ ID NO: 132, […]) and a heavy chain constant region/light chain constant region sequence to obtain recombinant plasmids expressing VH-CH1-Fc/VL-CL).

[3] = target: T1, human CDH6 on tumor cells (OVCAR3 …); experiment: FACS, OVCAR3 cells
Experimental: as §1
as §2, with “VH—CH1-Fc/VL-CL).” for “VH-CH1-Fc/VL-CL).”, “hCDH6-6” for “hCDH6-14”

[4] = target: T2, his-tagged human CDH6 extracellular …; experiment: ELISA, coated antigen; remark: listed apart in the source
Experimental: as §3
as §4, with “VH—CH1-Fc/VL-CL).” for “VH-CH1-Fc/VL-CL).”

Binder	EC50 [1]	Max MFI [1]	EC50 [2]	Max OD450 [2]	EC50 [3]	Max MFI [3]	EC50 [4]	Max OD450 [4]
hCDH6-14-H1L3 (antibody, V domains shown, Humanized) VH: EVQLVQSGAEVKKPGASVKVSCKASGYTFTDNYINWVRQAPGQRLEWMGWIYPGTGNSYYNEKFKGRVTITVDTSASTAYMELSSLRSEDTAVYYCASSYGDSFDYWGQGTTVTVSS VL: DIVMTQSPDSLAVSLGERATINCRASQDIRNYLNWYQQKPGQTPKLLISYTSRLHSGVPDRFSGSGSGTDFTLTISSLQAEDVAVYYCQQYSQLPWTFGGGTKVEIK	0.27 nM	3580 MFI	0.056 nM	2.68 OD450				
hCDH6-14-H2L3 (antibody, V domains shown, Humanized) VH: EIQLVQSGAEVKKPGASVKVSCKASGYTFTDNYINWVRQAPGQRLEWMGWIYPGTGNSYYNEKFKGRVTITVDTSASTAYMELSSLRSEDTAVYYCASSYGDSFDYWGQGTTVTVSS VL: DIVMTQSPDSLAVSLGERATINCRASQDIRNYLNWYQQKPGQTPKLLISYTSRLHSGVPDRFSGSGSGTDFTLTISSLQAEDVAVYYCQQYSQLPWTFGGGTKVEIK	0.22 nM	3780 MFI	0.09 nM	2.48 OD450				
hCDH6-6-H1L3 (antibody, V domains shown, Humanized) VH: EVQLVQSGAEVKKPGASVKVSCKASGYTFTDYYMAWVRQAPGQGLEWMGYIFPNSGGTDYSQKFKGRVTMTVDKSTSTVYMELSSLRSEDTAVYYCARELGADYGDYYAMDHWGQGTTVTVSS VL: DIQMTQSPSSLSASVGDRVTITCRASENIDSYLAWYQQKPGKSPQLLVYSATLLADGVPSRFSGSGSGTDYTLTISSLQPEDFATYYCQHYYRTPPTFGQGTKLEIK					0.63 nM	13800 MFI	0.031 nM	1.99 OD450
hCDH6-6-H1L4 (antibody, V domains shown, Humanized; also called hCDH6-6-HIL4) VH: EVQLVQSGAEVKKPGASVKVSCKASGYTFTDYYMAWVRQAPGQGLEWMGYIFPNSGGTDYSQKFKGRVTMTVDKSTSTVYMELSSLRSEDTAVYYCARELGADYGDYYAMDHWGQGTTVTVSS VL: DIQMTQSPSSLSASVGDRVTITCRASENIDSYLAWYQQKPGKSPKLLVYSATLLADGVPSRFSGSGSGTDYTLTISSLQPEDFARYYCQHYYRTPPTFGQGTKLEIK					0.64 nM	14400 MFI	0.021 nM	2.16 OD450

Continued, values first:

EC50 [1]	Max MFI [1]	EC50 [2]	Max OD450 [2]	EC50 [3]	Max MFI [3]	EC50 [4]	Max OD450 [4]	Binder
0.24 nM	3700 MFI	0.067 nM	2.7 OD450					hCDH6-14-H6L1 (antibody, V domains shown, Humanized) VH: EVQLVQSGAEVKKPGASVKVSCKASGYTFTDNYINWVRQAPGQRLEWMGWIYPGTGNSYYNEKFKGRVTITVDTSASTAYMELSSLRSEDTAVYLCASSYGDSFDYWGQGTTVTVSS VL: DIQMTQSPSSLSASVGDRVTITCRASQDIRNYLNWYQQKPGKAFKLLISYTSRLHSGVPSRFSGSGSGTDFTFTISSLQPEDIATYYCQQYSQLPWTFGGGTKVEIK
0.26 nM	3540 MFI	0.093 nM	2.62 OD450					hCDH6-14-H6L2 (antibody, V domains shown, Humanized) VH: EVQLVQSGAEVKKPGASVKVSCKASGYTFTDNYINWVRQAPGQRLEWMGWIYPGTGNSYYNEKFKGRVTITVDTSASTAYMELSSLRSEDTAVYLCASSYGDSFDYWGQGTTVTVSS VL: DIQMTQSPSSLSASVGDRVTITCRASQDIRNYLNWYQQKPGGAPKLLISYTSRLHSGVPSRFSGSGSGTDFTFTISSLQPEDIATYYCQQYSQLPWTFGGGTKVEIK
0.21 nM	3600 MFI	0.092 nM	2.72 OD450					hCDH6-14-H5L3 (antibody, V domains shown, Humanized) VH: EVQLQQSGAEVKKPGASVKVSCKASGYTFTDNYINWVRQAPGQRLEWMGWIYPGTGNSYYNEKFKGRVTITVDTSASTAYMELSSLRSEDTAVYYCASSYGDSFDYWGQGTTVTVSS VL: DIVMTQSPDSLAVSLGERATINCRASQDIRNYLNWYQQKPGQTPKLLISYTSRLHSGVPDRFSGSGSGTDFTLTISSLQAEDVAVYYCQQYSQLPWTFGGGTKVEIK
0.19 nM	3470 MFI	0.113 nM	2.56 OD450					hCDH6-14-H3L3 (antibody, V domains shown, Humanized) VH: EIQLVQSGAEVKKPGASVKVSCKASGYTFTDNYINWVRQAPGQRLEWMGWIYPGTGNSYYNEKFKGRVTLTVDTSASTAYMELSSLRSEDTAVYYCASSYGDSFDYWGQGTTVTVSS VL: DIVMTQSPDSLAVSLGERATINCRASQDIRNYLNWYQQKPGQTPKLLISYTSRLHSGVPDRFSGSGSGTDFTLTISSLQAEDVAVYYCQQYSQLPWTFGGGTKVEIK
0.27 nM	3870 MFI	0.084 nM	2.67 OD450					hCDH6-14-H4L3 (antibody, V domains shown, Humanized) VH: EVQLVQSGAEVKKPGASVKVSCKASGYTFTDNYINWVRQAPGQGLEWMGWIYPGTGNSYYNEKFKGRVTITVDTSASTAYMELSSLRSEDTAVYYCASSYGDSFDYWGQGTTVTVSS VL: DIVMTQSPDSLAVSLGERATINCRASQDIRNYLNWYQQKPGQTPKLLISYTSRLHSGVPDRFSGSGSGTDFTLTISSLQAEDVAVYYCQQYSQLPWTFGGGTKVEIK
